Here are results for 41 sequences from the nanobody polyreactivity screen of Harvey et al. (2022).

The series is described as follows: yeast display, Sf9 membrane polyspecificity reagent, FACS + sequencing; frameworks hold sequencing errors. In short, it runs like this: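 Polyreactivity labels are assigned by the sorting gate from which each nanobody was recovered. The gates were low and high (top ~1%), set on anti-HA fluorescence for expression and streptavidin fluorescence for reagent binding. Before sorting, galactose-induced (36–48 hours) yeast display cells were stained for 1 hour at 4 °C with 10% biotinylated, detergent-solubilized Sf9 membrane reagent.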
Turning to “QVQLVESGGGLFQAGGSLRLSCAASGFIFSHYAMGWYRQAPGNDREFVATISKRGGSTTYADSVKGRFTISRDNAKNTVYFQMNSLKPVDTAVYDFAADYYPASAGFDYWGQGTQVTVSS”, the “polyreactivity (PSR sort gate)” value was “high polyreactivity”.
The value for “QVQLVESGGGLFQAGGSLRLSCAASGFIFSYNAMGWYRQAPGKERELVAAISSSGGTTYYADSVKGRFTISRDNAKNTVYLQMNSLKPEDTAVYYCNARWHAEYDYWGQGTQVTVSA” was “low polyreactivity”; that for “QVQLVESGGGLFQAGGSLRLSCAASGFIFTRYAMGWYRQAPGKERELVAAISWSGGSTYYADSVKGRFTISRDNAKNTVYLQMNSLKPEDTAVYYCAADGSDSYDYWGQGTQVTVSS” was “low polyreactivity”.
Take “QVQLVESGGGLFQAGGSLRLSCAASGFTFYGYAMAWYRHAPGKERELVAAITFRGDRTYYADSVKGRFTISRDNAKNTVYLQINSLKPEDTAVYYCAAVRPSGWYSYLSLYIVRRGYWGQGTQVTVSS”: the “polyreactivity (PSR sort gate)” value is recorded as “low polyreactivity”.
As for “QVQLVESGGGLFQAGGSLRLSCAASGFTIYHNAMRWYRQEPGKERELVAAISSSGDSTYYADSVKGRFTISRDNAKNTVYLQMNSLKPEDTAVYYCNDYFYYLSLYYYYWFNYDYWGQGTQVTVSS”, the entry is “low polyreactivity”; as for “QVQLVESGGGLFQAGGSLRLSCAASGIIFRGNAMGWYRQATVKERELVAAISKSGGRTYYADSVKGRFTISRDNAKNTVYLEMICLKPEDSAVYYCAARFYAVGGYDYWGQGTQVTVSS”, “high polyreactivity”.
On to “QVQLVESGGGLFQAGGSLRLSCAASGIIFYVNAMAWSRQAPGKERERVAVISRRGGSTNDADSVKGRFTISRDNAKNTVYLQMKSLKPEDTAVYYCDAGYRTAYRGSSYYYWGKGTQVTVSS”, for which the “polyreactivity (PSR sort gate)” value is “high polyreactivity”.
Turning to “QVQLVESGGGLFQAGGSLRLSCAASGITFYYYTMGWYRQAPGKERELVAAISTRGGRTYYADSVKGRFTISRDNAKNTVYLQMNSLKPEDTAVYYCATYQSGVYASKRRLDYWGQGTQVTVSS”, the “polyreactivity (PSR sort gate)” value is given as “high polyreactivity”.
As for “QVQLVESGGGLFQAGGSLRLSCAASGLTFVDNSMGWYRQAPGKEREFVAAITKRGGRTYYADSVKGRFTISRDNAKNTVYLQMTSLKPEDTAVYYCARESGNDSSRRLDYWGQGTQVTVSS”, the entry is “low polyreactivity”; as for “QVQLVESGGGLFQAGGSLRLSCAASGNTFLRNAMGWYRQPPWKERELVAAISRSGGRTYYADSVKGSFTISRDNAKNTVYLQMISLKPDDTAVYYCAVVTQFGDGYYWGQGTQVTVSS”, “high polyreactivity”.
On to “QVQLVESGGGLFQAGGSLRLSCAASGRIFDYNVMGWYRQAPGKERELVADINGSGGGTNYADSVKGRFTISRDNAKNTVYLQMNSLKPEDTAVYYCNADSYEYHVPYYDYRYDYWGQGTQVTVSS”, for which the “polyreactivity (PSR sort gate)” value was “low polyreactivity”.
Consider “QVQLVESGGGLFQAGGSLRLSCAASGRIFGFYAMGWYRQAPGKERELVARITLSGGRTYYADSVKGRFTISRDNAKNTVYLQMNSLKPEDTAVYYCAADSIGRLWGYGYWGQGTQVTVSS”, for which the “polyreactivity (PSR sort gate)” value is “high polyreactivity”.
The value for “QVQLVESGGGLFQAGGSLRLSCAASGRIFNSNTMGWYRPAPGKDRELVARIDTGGGSTYADSVKGRFTISRDNAKNTVYLQMNSLQPEDTAVYHCNKIGRWRSWGSTSLVSMDYWGQGTKVTVSS” was “low polyreactivity”.
The value for “QVQLVESGGGLFQAGGSLRLSCAASGRTFGYYAMGWYRQAPGKERELVAAITGDATTYYADSVKGRFTISRDNAKNTVYLQMNSLQPEDTAVYYCDALFTPALSEYDYWGQGTQVTVSS” was “high polyreactivity”; that for “QVQLVESGGGLFQAGGSLRLSCAASGRTFVHNAMGWYRQAPGKERDLVAVITSGARTTYADSVKGRFTISRDNAKNTVYLQMNSLKPEDTAVYYFAAGTFSVIFSYKYRHYYYWGQGTQVTVSS” was “low polyreactivity”; that for “QVQLVESGGGLFQAGGSLRLSCAASGRTFYSNDMGWYRQAPGNERELVAAISWRSGSTHYADSVKGRFTISRDNAKNTVYFQMNSLKPEDTAVFYCAARRRDLVPHYYWGQGTQVTVSS” was “high polyreactivity”.
On to “QVQLVESGGGLFQAGGSLRLSCAASGSIFDDYAMGWYRQAPGKERELVAAISSSGTSTYYADSVKGRFTISRDNAKNTVYLQMNSLKPEDTAVFYCAARSAILKSGYLMDYWGQGTQVTVSS”, for which the “polyreactivity (PSR sort gate)” value is recorded as “low polyreactivity”.
“QVQLVESGGGLFQAGGSLRLSCAASGSIIRKYAMGWSIQAPGKERELVAAISRRTGNTYYADSVKGRFTISRDNAKNTVYLQMKSLKPEDTAVYYCAADYYSSSSWSEVDSWGQGTQVTVSS”: the “polyreactivity (PSR sort gate)” value is “high polyreactivity”.
As for “QVQLVESGGGLFQAGGSLRLSCAASGSILTHYAMGWYRQAPGKERELVAGNTSGGTTNYADSVKGRFTISRDNAKNSVYLQMNSLKPEDTAVYYCNADVWICQRFETGYDFDYWGQGTQVTVSS”, the “polyreactivity (PSR sort gate)” value was “low polyreactivity”.
As for “QVQLVESGGGLFQAGGSLRLSCAASGSISYYNAMGWYRQAPGKERELVATITDSGGSTYYADSVKGRFTISRDIAKNTVYLQMISLKPEDTAVYYCAVDFSEWYSIYDYWGQGTQVTVSS”, the entry is “low polyreactivity”; as for “QVQLVESGGGLFQAGGSLRLSCAASGSTFAPYAMGWYRHATGKERELVAAISNSGGSTYYADSVKGRFTISRDDAKNTVYLQMNCLKPEATAVLYCATLKYPYATSQGYDFWGQCTQVTVSS”, “high polyreactivity”; as for “QVQLVESGGGLFQAGGSLRLSCAASGSTFFGYAMGWYRQAPGKERELVAAISSRGGTTNYADSVKGRFTISRDNAKNTVYLQMNSLKPEDNAVYYCNAKDTQEYNRVKYNYWGQGTQVTVSS”, “high polyreactivity”.
With “QVQLVESGGGLFQAGGSLRLSCAASGSTFGFYAIGWYRQAPGKERELVARITYSGGSTYYADSVKGRFTISRDNAKITVYLQLNSLIPEDNAVSYCAARSWTHYFRYDYWGQGTQVTVSS”, the “polyreactivity (PSR sort gate)” value was “high polyreactivity”.
As for “QVQLVESGGGLFQAGGSLRLSCAASGSTFRFNAMGWYRQAPGKERELVAAISRSGGTTYYADSVKGRFTISRDNAKNTVYLQMNSLKPEDTAVYYCNAQWWRYWPSQVIFDYWGQGTQVTVSS”, the entry is “high polyreactivity”; as for “QVQLVESGGGLFQAGGSLRLSCAASGSTFVWYAMGWYRQAPGKEREFVAANTNSGGSTYYADSVKGRFTISRDTAKNTVYLQMNILKPEDTAVYYCAAQSYYFSYHYDYWGQGTQVTVSS”, “low polyreactivity”.
Regarding “QVQLVESGGGLFQAGGSLRLSCAASGSTFYIYAMGWYRHAPGKERELVARITRGGTTYADSVKGRFTISRDNAKNTVYLQMNSLKPEDTAVYYCNAYISDDRYWSPAIEEDYWGQGTQVTVSS”, the “polyreactivity (PSR sort gate)” value is on record as “high polyreactivity”.
As for “QVQLVESGGGLFQAGGSLRLSCAASGSTSRYPMGWYRQAQGQERELVAAITRSGGTTYYADSVKGRFTISRDNAKNTVYLQMYSLKPEDTAVYYCATSDRQVKYDYWGQGTQVTVSS”, the entry is “low polyreactivity”.
Regarding “QVQLVESGGGLFQAGGSLRLSCAASGTFYIYAMGWYRQAPGKERELVAGISFSGGSTYYADSVKGRFTISRDNAKNTVYLQMNSLKPEDTAVYYCAAELYVLPYDYWGQGTQVTVSS”, the “polyreactivity (PSR sort gate)” value was “high polyreactivity”.
The value for “QVQLVESGGGLFQAGGSLRLSCAPSGRISNKYAMGWYRQAPGKERELVAAISYSGGTTYYADSVKGRFTISRDNAKNTVYLQMNSLKPEDTAGYYCAREWTKGYGYYWGYYWGQGTQVTASS” was “low polyreactivity”; that for “QVQLVESGGGLFQAGGSLRLSCAPSGSIFQYNAMGWYRQAPGKERELVAAINRRGTRTYYADSVKGRFTISRDNAKNTVYLQMNSLKPEDTAVYYCNKYQSTDVRSSYSAGYGYWGQGTQVTVSS” was “high polyreactivity”.
On to “QVQLVESGGGLFQAGGSLRLSCAPSGSNFSIYAMGWYRQAPGKERELVAAITWGGGSTYYADSVKGRFTISRDNAKNTVYLQMNSLKPEETAVYDCAADSLTWYGTYYYWGQGTQVTVSS”, for which the “polyreactivity (PSR sort gate)” value is given as “high polyreactivity”.
For the sequence “QVQLVESGGGLFQAGGSLRLSCSASGFIFRGYAMGWSRQAPGKERELVAAISTGGGRTYYADSVKGRFTISRDNAKNTVYLQMNSLKPEDTAVYYCNRLSYTQVLMDYWGQGTQVTVSS”, the “polyreactivity (PSR sort gate)” value is recorded as “high polyreactivity”.
As for “QVQLVESGGGLFQAGGSLRLSSAASGIIFGYYSLGWYRQAPGKERELVAAINQDGSSTYYADSVKGRFTISRDNAKNTVYLQMNSLNPEDTAVYYCNARGVPRQDDRMGYWGQGTQVTVSS”, the entry is “low polyreactivity”; as for “QVQLVESGGGLFQAGGSLRLSSAASGIIFSTYAMGWYRQAHGKERELVAAITSTGSTNYADSVKGRFTISRDNAKNTVYLQMNSLKPEDTAVYYCAAEGHTAFLVYRVSPLQYDYWGQGTQVTVSS”, “low polyreactivity”.
“QVQLVESGGGLFQAGVSLTLSFAASGSIFDINAMGWYRQEPWKETDLVAAIRSGDRTHYADSVKGRFTISRDNAMNTVYLQMNSLIPEDTAVYYCAADRFIYLNRELDYWGQGTQVTVSS”: the “polyreactivity (PSR sort gate)” value is listed as “low polyreactivity”.
In the case of “QVQLVESGGGLFQEGGSLRLSCAASGSTFPSYAMGWYRQAPGKERELVAAINSGGGTNYADSVKGRFTISRDNAKNTVYLQMNSLKADDTEVYYCAKSRYDYTKSEGGYWGQGTQVTVSS”, the “polyreactivity (PSR sort gate)” value is given as “low polyreactivity”.
“QVQLVESGGGLFRAGGSLRLICAASGITFYGYAMGWYRQAPGKERELVAAITWSGGRTYYADSVKGRFTISRDNAKNTVYLQMNSMKPEDTAVYYCARRTWHSVGYWGQGTQVTVSS”: the “polyreactivity (PSR sort gate)” value is recorded as “high polyreactivity”.
As for “QVQLVESGGGLGQAGGRLRLTCAASGFTFRPYDMGWYRQAPGKERELVAVIIGGDSTNYADSVQGRFTISRDNAKNTVYLQMNSLKPEDTAVYYCAADYIDRVGWMDYWGQGTQVTVSS”, the entry is “low polyreactivity”.
On to “QVQLVESGGGLGQAGGSLLLSCAASGRIFWCNAMGWTRQAPGKERELVAAIRWSGGSTYYADSVKGRFTISRDNAKNTVYLQMNSLKPEDTAVYYCAASPYWSDWTKVDSWGQGTQVTVSS”, for which the “polyreactivity (PSR sort gate)” value is “low polyreactivity”.
As for “QVQLVESGGGLGQAGGSLRLSCAASGFIFQANAMGWYRQAPGKERELVAAIDDGDSTYADSVKGRFTISRDNAKNTVYLQMNSLKPEDTAVSYCAPRRNRSYDYWGQGTQVTVSS”, the entry is “low polyreactivity”; as for “QVQLVESGGGLGQAGGSLRLSCAASGFTFVYYAMGWYRPAPGKERELVAAISSRGGSTNYADSVKGRFTISRDNAKNTVYLQMNSLKPEDTAVYYCATYFSIQRRGDYWGQGTQVTVSS”, “high polyreactivity”.
